Among the data in patent US20250064853A1 (GYALA THERAPEUTICS SOCIEDAD LIMITADA, published 2025) are 300.19-CD84 binding values, retold here.

To fix the notation:
T1: human CD84 on cells (human, UniProt Q9UIB8 22-345)
T1 construct: the cells were 300.19 cells stably transfected with CD84 full-length DNA, or Raji, Ramos, MOLM-13 cells, lymphocytes and monocytes with their own CD84; also called LY9B; SLAMF5
T1 sequence: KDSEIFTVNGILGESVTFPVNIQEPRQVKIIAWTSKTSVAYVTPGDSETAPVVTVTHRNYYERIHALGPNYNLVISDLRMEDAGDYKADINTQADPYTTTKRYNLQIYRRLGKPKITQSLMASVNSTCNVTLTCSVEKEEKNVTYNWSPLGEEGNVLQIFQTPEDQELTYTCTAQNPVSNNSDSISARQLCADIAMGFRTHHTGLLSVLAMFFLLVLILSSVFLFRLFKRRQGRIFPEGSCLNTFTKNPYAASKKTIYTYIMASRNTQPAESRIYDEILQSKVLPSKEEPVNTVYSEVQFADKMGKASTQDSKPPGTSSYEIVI

B1: GYCD84.5.171 (antibody, IgG1, V domains shown)
VH: EVQLVESGGGLVQPKGSLKLACAASGFTFNIYAMNWVRQAPGKGLEWVARIRSKSNNYARFYADSVKDRFTISRDDSQSMLYLQMNNLKTEDTAMYYCVRPLRSYFSMDYWGQGTSVTVSS
VL: SIVMTQSPKSMSMSVGERVTLSCKASENVDTYVSWYQQKPEQSPKLLIYGASNRYTGVPDRFTGSGSATDFTLTISSVKAEDLADYHCGQTYSYPWTFGGGTKLEIK
notes: tested as hybridoma supernatant
B2: 152-1D5 (antibody, IgG1, V domains shown)
VH: QVQLQQPGAEVVQPGTSVKLSCKASGYNFTNYWINWVKLRPGQGLEWIGDIYPVSGTTNYNEKFKRKATLTVDTSSSTGNMQLSSLASEDSALYYCASGTGRFAYWGQGTLVTVSA
VL: DIVLTQSPASLAVSLGQRATISCRASQSVSTSSYSYMHWYQQKPGQPPKLLIKFASNLESGVPARFSGSGSGTDFTLNIHPVEEEDTATYYCQHSWEIPYTFGGGTKLEIK
notes: tested as hybridoma supernatant; also called anti-CD84 mouse monoclonal antibody 152-1D5
B3: GYCD84.1-97 (antibody, IgG2a, V domains shown)
VH: QVQLQQPGAELVKPGTSVKLSCKASGYNFTSYWINWVKLRPGQGLEWIGDIYLGSGSTNYNEKFKSKATLTVDTSSSSAYMQLSSLVSEDSALYYCATSGGYLGYWGQGTTLTVSS
VL: B2 VL
notes: as for B1

For this assay, the target named is T1, human CD84 on cells. The assay can be described thus: flow cytometry, hybridoma supernatant, 300.19 cells transfected with CD84.
In the case of B1, the 300.19-CD84 binding turned out to be 93.2%.
The result for B2 reads 92.5%; that for B3, 97.7%.
